Changes are numbered by the printed parent chain.
Tests used:
[1] = target: T1, His-SMAD4^R361H, Q13485; assay: AlphaScreen or HTRF; conditions: remark: other sources report otherwise
T1 chain: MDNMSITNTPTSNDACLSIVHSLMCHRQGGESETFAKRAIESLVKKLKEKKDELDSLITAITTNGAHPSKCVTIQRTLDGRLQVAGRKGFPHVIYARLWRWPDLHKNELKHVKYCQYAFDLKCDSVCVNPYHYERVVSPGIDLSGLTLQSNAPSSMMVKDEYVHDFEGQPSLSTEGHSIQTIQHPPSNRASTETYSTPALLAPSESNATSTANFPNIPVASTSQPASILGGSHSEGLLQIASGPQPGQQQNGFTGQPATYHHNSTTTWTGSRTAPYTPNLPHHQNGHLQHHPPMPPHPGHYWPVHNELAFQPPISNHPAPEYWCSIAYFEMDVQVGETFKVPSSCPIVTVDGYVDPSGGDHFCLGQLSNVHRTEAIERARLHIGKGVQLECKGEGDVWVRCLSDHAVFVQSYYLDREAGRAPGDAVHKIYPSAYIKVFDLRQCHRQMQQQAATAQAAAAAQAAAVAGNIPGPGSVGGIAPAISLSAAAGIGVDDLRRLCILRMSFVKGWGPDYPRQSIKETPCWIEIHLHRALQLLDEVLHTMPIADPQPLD

[2] = target: T2, His-SMAD4^WT, Q13485; assay: AlphaScreen or HTRF; conditions: remark: other sources report otherwise
T2 chain: T1 chain with H361R

B1: Flag-SMAD3, P84022 1-425 (natural protein)
chain: MSSILPFTPPIVKRLLGWKKGEQNGQEEKWCEKAVKSLVKKLKKTGQLDELEKAITTQNVNTKCITIPRSLDGRLQVSHRKGLPHVIYCRLWRWPDLHSHHELRAMELCEFAFNMKKDEVCVNPYHYQRVETPVLPPVLVPRHTEIPAEFPPLDDYSHSIPENTNFPAGIEPQSNIPETPPPGYLSEDGETSDHQMNHSMDAGSPNLSPNPMSPAHNNLDLQPVTYCEPAFWCSISYYELNQRVGETFHASQPSMTVDGFTDPSNSERFCLGLLSNVNRNAAVELTRRHIGRGVRLYYIGGEVFAECLSDSAIFVQSPNCNQRYGWHPATVCKIPPGCNLKIFNNQEFAALLAQSVNQGFEAVYQLTRMCTIRMSFVKGWGAEYRRQTVTSTPCWIELHLNGPLQWLDKVLTQMGSPSIRCSSVS
Question: Which EC50 of Go-6983 in enhancing the PPI [1] does the source give for B1 here?
Answer: 15.2 µM

Question: And the EC50 of PKC-412 in enhancing the PPI [1]?
Answer: > 100 µM

Question: What about the EC50 of Ro-31-8220 in enhancing the PPI [1] of the same binder?
Answer: 3.9 µM

Question: And the EC50 of UCN-1028c in enhancing the PPI [1]?
Answer: > 100 µM

Question: What about the signal-to-background ratio (TR-FRET) [1] of the same binder?
Answer: 10 fold

Question: And the signal-to-background ratio (TR-FRET) [2]?
Answer: 30 fold

Reference: PMC10053325
